Test results reported in article PMC8292405, “Functional expression of the eukaryotic proton pump rhodopsin OmR2 in Escherichia coli and its photochemical characterization” (Scientific Reports, 2021).

Key:
[1] = target: Asp97 (UniProt position 97, VFRYIDWLLTV); conditions: not stated (counterion of the protonated Schiff base); cited from earlier work
[2] = target: Asp95 (UniProt position 95, YARYADWLFTT); conditions: not stated (counterion of the protonated Schiff base); cited from earlier work
[3] = test system: Asp100; conditions: not stated (counterion of the protonated Schiff base); cited from earlier work
[4] = target: Asp95 (UniProt position 95, FYRYADWLLTV); conditions: not stated (counterion of the protonated Schiff base); cited from earlier work
[5] = target: Asp81 (UniProt position 81, YARYIDWVLTT); conditions: not stated (counterion of the protonated Schiff base); cited from earlier work
[6] = test system: Asp88; assay: UV-vis; conditions: room temperature (approx. 25 °C), 1 M NaCl, Buffer A: 50 mM Tris-HCl, 0.05% (w/v) DDM, pH adjusted by adding HCl, Unphotolysed state under room light, all-trans retinal bound with protonated Schiff base, folded (reversibility of the spectral changes was checked)
[7] = target: Asp85 (UniProt position 98, WARYADWLFTT); conditions: not stated (counterion of the protonated Schiff base); cited from earlier work
[8] = target: T1, OmR2 (O. marina rhodopsin-2) (Oxyrrhis marina, UniProt A0A0B4P477); assay: absorption spectroscopy; HPLC of retinal oximes; type: binding; conditions: covalent; protonated Schiff base (Lys213); 50 mM Tris-HCl pH 7.0, 1 M NaCl, 0.05% DDM
T1 construct: full-length, codon-optimized synthetic gene, C-terminal His6 tag kept; expressed in E. coli BL21(DE3) (pET21a) and in HEK293T; purified in DDM micelles
T1 sequence (A0A0B4P477 entry or part of it): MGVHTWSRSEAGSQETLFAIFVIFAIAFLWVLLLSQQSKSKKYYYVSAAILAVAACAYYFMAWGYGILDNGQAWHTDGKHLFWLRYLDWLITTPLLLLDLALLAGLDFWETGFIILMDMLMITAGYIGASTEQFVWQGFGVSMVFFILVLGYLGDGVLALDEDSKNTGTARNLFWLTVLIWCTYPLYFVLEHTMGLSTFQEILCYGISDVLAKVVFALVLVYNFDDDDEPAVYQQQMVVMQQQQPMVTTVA

Q: Which pKa [1] does the source give for “Proteorhodopsin (PR, green-absorbing) (uncultured marine gamma-proteobacterium (EBAC31A08))” here?
A: Its pKa is 7.5.

Q: For “Archaerhodopsin-3 (AR3) (Halorubrum sodomense)”, which pKa [2] is on record?
A: Its pKa is 3.1.

Q: Which pKa [3] does the source give for “Oxyrrhis marina rhodopsin-1 (OmR1, OR1) (Oxyrrhis marina)” here?
A: The pKa was 4.

Q: For “Thermophilic rhodopsin (TR) (Thermus thermophilus)”, which pKa [4] is on record?
A: The pKa was 3.4.

Q: With “Acetabularia rhodopsin II (ARII) (Acetabularia acetabulum)” as the molecule, how does the pKa [5] read?
A: The pKa was 2.6.

Q: With “Oxyrrhis marina rhodopsin-2 (OmR2) (Oxyrrhis marina)” as the molecule, how does the pKa [6] read?
A: The pKa was 3.0 ± 0.04.

Q: With “Bacteriorhodopsin (BR) (Halobacterium salinarum)” as the molecule, how does the pKa [7] read?
A: The pKa was 2.6.

Q: For `CC1=C(/C=C/C(C)=C/C=C/C(C)=C/C=O)C(C)(C)CCC1` [all-trans retinal], which “absorption spectroscopy; HPLC of retinal oximes” value [8] is on record?
A: Its value is “This indicates that OmR2 possesses all-trans retinal regardless of the light environment”.
